Test results as given in patent US20250051465A1 (published 2025).

T1: full length human LEPR on cells (human, UniProt P48357 22-1165)
T1 sequence: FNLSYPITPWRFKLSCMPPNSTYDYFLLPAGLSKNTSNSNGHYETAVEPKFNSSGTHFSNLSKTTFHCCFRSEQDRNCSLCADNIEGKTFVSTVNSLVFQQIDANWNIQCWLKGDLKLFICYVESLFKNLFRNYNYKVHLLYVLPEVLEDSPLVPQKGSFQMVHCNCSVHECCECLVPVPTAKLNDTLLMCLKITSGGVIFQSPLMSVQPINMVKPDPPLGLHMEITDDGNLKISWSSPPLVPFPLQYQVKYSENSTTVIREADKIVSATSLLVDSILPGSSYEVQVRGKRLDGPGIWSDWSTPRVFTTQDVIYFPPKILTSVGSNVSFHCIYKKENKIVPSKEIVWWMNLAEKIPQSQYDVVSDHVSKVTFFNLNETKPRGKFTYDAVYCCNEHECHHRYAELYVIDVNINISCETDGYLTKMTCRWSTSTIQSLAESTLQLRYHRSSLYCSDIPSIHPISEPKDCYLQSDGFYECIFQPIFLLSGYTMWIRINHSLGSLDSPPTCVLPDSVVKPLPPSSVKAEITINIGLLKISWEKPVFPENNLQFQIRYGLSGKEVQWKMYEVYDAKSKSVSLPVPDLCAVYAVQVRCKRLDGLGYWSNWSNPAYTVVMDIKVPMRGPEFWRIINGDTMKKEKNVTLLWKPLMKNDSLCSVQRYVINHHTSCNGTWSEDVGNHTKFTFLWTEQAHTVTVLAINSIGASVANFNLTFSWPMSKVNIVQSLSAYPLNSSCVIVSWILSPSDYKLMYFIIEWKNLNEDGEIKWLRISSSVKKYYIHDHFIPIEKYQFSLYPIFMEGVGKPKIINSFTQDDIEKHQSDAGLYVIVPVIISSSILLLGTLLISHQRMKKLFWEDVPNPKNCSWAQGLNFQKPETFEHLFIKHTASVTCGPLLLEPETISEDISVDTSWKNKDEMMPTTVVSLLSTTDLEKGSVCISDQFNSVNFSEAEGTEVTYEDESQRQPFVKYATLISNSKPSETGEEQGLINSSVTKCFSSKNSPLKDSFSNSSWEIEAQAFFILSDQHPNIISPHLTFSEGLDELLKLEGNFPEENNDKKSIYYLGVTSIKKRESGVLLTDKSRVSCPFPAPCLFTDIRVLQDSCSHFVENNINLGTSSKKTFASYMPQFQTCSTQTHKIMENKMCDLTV


Columns and labels:
[1] = target: T1, full length human LEPR on cells; test: cell-based or functional assay
[2] = target: mouse LEPR extracellular domain expressed with a C-terminal myc-myc-hexahistidine tag (mLEPR.mmh) (mouse, UniProt P48356 22-839); test: SPR, captured mAb, 25C and 37C
[3] = target: rat LEPR extracellular domain expressed with a C-terminal myc-myc-hexahistidine tag (rLEPR.mmh) (rat, UniProt Q62959 22-839); test: SPR, captured mAb, 25C and 37C
human LEPR CRH1 (D1)-MMH = target: T2, human LEPR CRH1 (D1)-MMH (human, UniProt P48357 22-229, limits assumed); test: Luminex, myc-captured LEPR domain
T2 construct: domain: CRH1 (D1); Transiently expressed, captured from supernatant on anti-myc beads
Method: (§1) Aliquots of microspheres with immobilized anti-myc monoclonal antibodies, prepared as described above, were added individually to 1 mL of the each of these protein supernatants. The microspheres were gently mixed, incubated for two hours at 25° C., washed twice with 1 mL of DBPS, centrifuged to remove the supernatant and finally resuspended in 1 mL of DPBS buffer. Forty-eight μL of anti-myc IgG coupled microspheres from individual reactions with full length human LEPR and with each of the human LEPR domain proteins were withdrawn and mixed together in 3.6 mL of PBS+20 mg/mL BSA+0.05% sodium azide (blocking buffer).
(§2) From this mixed pool, 75 μL of microspheres were plated per well on a 96 well filter plate (Millipore, Cat. No: MSBVN1250) and mixed with 25 μL of individual anti-human LEPR monoclonal antibodies (0.5 or 5 µg/mL), incubated for two hours at 25° C. and then washed twice with 200 μL of DPBS with 0.05% Tween 20 (washing buffer). […] After 30 minutes, the samples were washed twice with 200 μL of washing buffer and resuspended in 150 μL of wash buffer. The Median Fluorescence intensity (MFI) of the microspheres was measured in a Luminex Analyzer.

[4] = target: T3, human LEPR CRH1 (D1,D2)-MMH (human, UniProt P48357 22-339, limits assumed); test: Luminex, myc-captured LEPR domain
T3 construct: domain: CRH1 (D1,D2); Transiently expressed, captured from supernatant on anti-myc beads
Method: as §1, §2

human LEPR Ig (D3)-MMH = target: T4, human LEPR Ig (D3)-MMH (human, UniProt P48357 340-427, limits assumed); test: Luminex, myc-captured LEPR domain
T4 construct: domain: Ig (D3); Transiently expressed, captured from supernatant on anti-myc beads
Method: as §1, §2

human LEPR CRH2-MMH = target: T5, human LEPR CRH2-MMH (human, UniProt P48357 428-634, limits assumed); test: Luminex, myc-captured LEPR domain
T5 construct: domain: CRH2; Transiently expressed, captured from supernatant on anti-myc beads
Method: as §1, §2

human LEPR FNIII-MMH = target: T6, human LEPR FNIII-MMH (human, UniProt P48357 636-839, limits assumed); test: Luminex, myc-captured LEPR domain
T6 construct: domain: FNIII; Transiently expressed, captured from supernatant on anti-myc beads
Method: as §1, §2

[5] = target: T7, human LEPR Ig-CRH2-FNIII-MMH (human, UniProt P48357 330-839, limits assumed); test: Luminex, myc-captured LEPR domain
T7 construct: domain: Ig-CRH2-FNIII; Transiently expressed, captured from supernatant on anti-myc beads
Method: as §1, §2

[6] = target: T8, human LEPR CRH1 (D1,D2,D3)-MMH (human, UniProt P48357 22-427, limits assumed); test: Luminex, myc-captured LEPR domain
T8 construct: domain: CRH1-Ig (D1,D2,D3); Transiently expressed, captured from supernatant on anti-myc beads; also called CRH1-Ig (D1, D2, D3)
Method: as §1, §2

[7] = target: T9, human LEPR CRH1-Ig (D2,D3)-MMH (human, UniProt P48357 230-427, limits assumed); test: Luminex, myc-captured LEPR domain
T9 construct: domain: CRH1-Ig (D2,D3); Transiently expressed, captured from supernatant on anti-myc beads
Method: as §1, §2

Sequence of rat LEPR extracellular domain expressed with a C-terminal myc-myc-hexahistidine tag (rLEPR.mmh) (Q62959 other isoform, or with tags, fused parts or gaps): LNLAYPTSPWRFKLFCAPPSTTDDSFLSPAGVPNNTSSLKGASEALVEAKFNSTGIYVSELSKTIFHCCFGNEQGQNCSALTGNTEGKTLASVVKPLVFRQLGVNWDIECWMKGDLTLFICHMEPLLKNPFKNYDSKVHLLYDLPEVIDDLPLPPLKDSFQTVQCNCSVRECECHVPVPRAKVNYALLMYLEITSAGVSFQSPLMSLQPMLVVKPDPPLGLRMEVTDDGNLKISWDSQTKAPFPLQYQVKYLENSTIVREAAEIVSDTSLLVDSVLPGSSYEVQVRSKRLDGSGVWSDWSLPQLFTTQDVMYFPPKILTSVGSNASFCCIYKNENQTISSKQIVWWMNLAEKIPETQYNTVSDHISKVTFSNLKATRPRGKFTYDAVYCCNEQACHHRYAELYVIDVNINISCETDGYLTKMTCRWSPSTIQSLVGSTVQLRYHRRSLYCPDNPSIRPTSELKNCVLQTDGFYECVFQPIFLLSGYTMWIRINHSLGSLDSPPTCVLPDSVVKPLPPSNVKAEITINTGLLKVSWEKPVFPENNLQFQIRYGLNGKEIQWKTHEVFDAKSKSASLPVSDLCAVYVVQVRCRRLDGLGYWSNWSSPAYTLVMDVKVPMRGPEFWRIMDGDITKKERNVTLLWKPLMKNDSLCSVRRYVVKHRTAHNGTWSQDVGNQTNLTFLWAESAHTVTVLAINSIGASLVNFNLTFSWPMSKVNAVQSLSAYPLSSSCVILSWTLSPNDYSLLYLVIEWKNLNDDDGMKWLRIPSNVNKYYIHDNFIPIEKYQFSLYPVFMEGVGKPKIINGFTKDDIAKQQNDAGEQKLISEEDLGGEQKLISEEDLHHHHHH
T9 sequence (P48357 other isoform, or with tags, fused parts or gaps limits assumed): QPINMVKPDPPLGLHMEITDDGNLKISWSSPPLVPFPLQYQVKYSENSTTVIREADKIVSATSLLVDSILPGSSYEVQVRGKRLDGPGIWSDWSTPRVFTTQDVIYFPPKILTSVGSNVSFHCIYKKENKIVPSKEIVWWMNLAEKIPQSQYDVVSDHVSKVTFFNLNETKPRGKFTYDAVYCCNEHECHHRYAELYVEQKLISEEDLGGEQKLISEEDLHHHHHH
Sequence of mouse LEPR extracellular domain expressed with a C-terminal myc-myc-hexahistidine tag (mLEPR.mmh) (P48356 other isoform, or with tags, fused parts or gaps): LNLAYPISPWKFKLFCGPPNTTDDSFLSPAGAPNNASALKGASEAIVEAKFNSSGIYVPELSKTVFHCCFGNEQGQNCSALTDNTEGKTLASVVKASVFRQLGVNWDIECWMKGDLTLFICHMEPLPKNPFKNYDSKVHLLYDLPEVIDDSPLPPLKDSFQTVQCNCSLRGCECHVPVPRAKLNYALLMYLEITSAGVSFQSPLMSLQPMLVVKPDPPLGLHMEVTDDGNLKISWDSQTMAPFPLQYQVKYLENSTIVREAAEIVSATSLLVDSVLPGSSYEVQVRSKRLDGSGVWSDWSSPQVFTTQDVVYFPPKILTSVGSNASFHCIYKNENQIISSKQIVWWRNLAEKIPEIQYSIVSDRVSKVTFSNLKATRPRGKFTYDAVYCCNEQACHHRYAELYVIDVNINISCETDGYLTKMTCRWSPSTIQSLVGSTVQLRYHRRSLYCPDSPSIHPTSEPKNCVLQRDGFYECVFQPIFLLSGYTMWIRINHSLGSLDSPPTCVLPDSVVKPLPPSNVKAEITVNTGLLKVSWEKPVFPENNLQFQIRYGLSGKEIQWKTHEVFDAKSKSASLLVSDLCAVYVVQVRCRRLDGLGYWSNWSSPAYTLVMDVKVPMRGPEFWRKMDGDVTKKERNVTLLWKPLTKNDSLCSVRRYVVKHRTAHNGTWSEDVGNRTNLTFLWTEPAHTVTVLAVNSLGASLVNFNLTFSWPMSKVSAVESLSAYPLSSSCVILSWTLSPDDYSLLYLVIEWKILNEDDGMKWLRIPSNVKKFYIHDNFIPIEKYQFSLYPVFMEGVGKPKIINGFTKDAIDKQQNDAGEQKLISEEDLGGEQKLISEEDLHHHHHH
T7 sequence (P48357 other isoform, or with tags, fused parts or gaps limits assumed): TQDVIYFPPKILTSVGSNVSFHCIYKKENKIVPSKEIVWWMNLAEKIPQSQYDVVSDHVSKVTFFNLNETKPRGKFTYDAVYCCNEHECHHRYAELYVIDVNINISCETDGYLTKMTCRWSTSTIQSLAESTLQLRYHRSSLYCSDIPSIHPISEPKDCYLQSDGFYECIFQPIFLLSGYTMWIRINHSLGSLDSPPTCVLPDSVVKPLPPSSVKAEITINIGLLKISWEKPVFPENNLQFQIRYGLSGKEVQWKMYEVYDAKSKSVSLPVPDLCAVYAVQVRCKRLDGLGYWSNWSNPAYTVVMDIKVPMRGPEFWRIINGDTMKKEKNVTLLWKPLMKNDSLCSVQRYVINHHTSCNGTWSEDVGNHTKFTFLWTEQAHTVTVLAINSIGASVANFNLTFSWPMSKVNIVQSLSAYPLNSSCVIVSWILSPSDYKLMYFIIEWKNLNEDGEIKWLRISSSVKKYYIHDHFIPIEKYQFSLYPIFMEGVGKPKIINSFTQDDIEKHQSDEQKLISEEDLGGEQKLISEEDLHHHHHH
T6 sequence (P48357 other isoform, or with tags, fused parts or gaps limits assumed): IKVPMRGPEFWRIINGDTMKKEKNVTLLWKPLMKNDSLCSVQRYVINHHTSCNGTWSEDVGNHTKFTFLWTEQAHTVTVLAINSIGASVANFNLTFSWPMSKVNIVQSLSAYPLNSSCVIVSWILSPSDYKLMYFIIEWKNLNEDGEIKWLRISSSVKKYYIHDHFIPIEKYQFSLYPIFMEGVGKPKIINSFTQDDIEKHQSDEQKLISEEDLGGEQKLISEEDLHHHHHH
T5 sequence (P48357 other isoform, or with tags, fused parts or gaps limits assumed): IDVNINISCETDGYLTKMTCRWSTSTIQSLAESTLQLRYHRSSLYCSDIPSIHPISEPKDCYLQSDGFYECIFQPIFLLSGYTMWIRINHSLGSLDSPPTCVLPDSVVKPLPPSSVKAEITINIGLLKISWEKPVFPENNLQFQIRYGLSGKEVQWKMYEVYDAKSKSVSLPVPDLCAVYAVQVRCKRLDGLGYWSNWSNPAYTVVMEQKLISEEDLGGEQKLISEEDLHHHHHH
T4 sequence (P48357 other isoform, or with tags, fused parts or gaps limits assumed): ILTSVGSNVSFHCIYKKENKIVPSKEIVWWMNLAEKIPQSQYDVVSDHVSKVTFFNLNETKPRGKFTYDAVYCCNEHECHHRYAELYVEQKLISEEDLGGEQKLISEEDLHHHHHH

| Binder | % activation, with 200 pM human Leptin [1] | % activation, without human Leptin [1] | EC50, STAT3-Luc reporter, with 200 pM human Leptin [1] | EC50, STAT3-Luc reporter, without human Leptin [1] | binding result [2] | binding result [3] | MFI (human LEPR CRH1 (D1)-MMH) | MFI [4] | MFI (human LEPR Ig (D3)-MMH) | MFI (human LEPR CRH2-MMH) | MFI (human LEPR FNIII-MMH) | MFI [5] | MFI [6] | MFI [7] |
| --- | --- | --- | --- | --- | --- | --- | --- | --- | --- | --- | --- | --- | --- | --- |
| H4H18449P2 (antibody, human IgG4, V domains shown, Fully human antibody with human IgG4 Fc (H4H prefix)) VH: EVQLVESGGGLVQPGGSLRLSCVASGFTFNKYDMHWVRQTTGKGLEWVSGIDTDGDTYYPGSVKGRFTISRENAENSLYLQMNGLRVGDTAVYYCARWPWSGFYGAFDIWGQGTMVTVSS VL: not shown | 66% | 13% | 5.23e-11 M | 212 pM | no binding | no binding | 20 MFI | 2930 MFI | 24 MFI | 15 MFI | 13 MFI | 43 MFI | 2060 MFI | 42 MFI |
| H4H18438P2 (antibody, human IgG4, V domains shown, Fully human antibody with human IgG4 Fc (H4H prefix)) VH: QVQLVESGGGVVQPGRSLRLSCAASGFSFNTYGMHWVRQAPGKGLEWVTIIWYDGSIKYYADSVKGRFTISRDNSKNTLYLQMNSLRAEDTAVYYCARGGYSGYLYFDYWGQGTLVTVSS VL: not shown | 76% | 5% | 2.02e-11 M | 1490 pM | no binding | no binding | 13 MFI | 18900 MFI | 30 MFI | 165 MFI | 25 MFI | 468 MFI | 6570 MFI | 8880 MFI |
| H4H18445P2 (antibody, human IgG4, V domains shown, Fully human antibody with human IgG4 Fc (H4H prefix)) VH: QVQLQESGPGLVKPSQTLSLTCTVSGGSISSGGDYWSWIRQLPGKGLEWIGYIYYSGSAYYNPSLKSRGTISIDTSKNQFSLKLTSVTAADTAVYFCVKLRFLEWFLGGWFGPWGQGTLVTVSS VL: not shown | 97% | 5% | 4.1e-10 M | 11900 pM | no binding | no binding | 12 MFI | 30 MFI | 19 MFI | 17 MFI | 230 MFI | 14500 MFI | 22 MFI | 40 MFI |

Now from value to binder:

| % activation, with 200 pM human Leptin [1] | % activation, without human Leptin [1] | EC50, STAT3-Luc reporter, with 200 pM human Leptin [1] | EC50, STAT3-Luc reporter, without human Leptin [1] | binding result [2] | binding result [3] | MFI (human LEPR CRH1 (D1)-MMH) | MFI [4] | MFI (human LEPR Ig (D3)-MMH) | MFI (human LEPR CRH2-MMH) | MFI (human LEPR FNIII-MMH) | MFI [5] | MFI [6] | MFI [7] | Binder |
| --- | --- | --- | --- | --- | --- | --- | --- | --- | --- | --- | --- | --- | --- | --- |
| 68% | 6% | 3.42e-11 M | 373 pM | no binding | no binding | 17 MFI | 682 MFI | 25 MFI | 65 MFI | 32 MFI | 16900 MFI | – | – | H4H18446P2 (antibody, human IgG4, V domains shown, Fully human antibody with human IgG4 Fc (H4H prefix)) VH: EVQLVESGGGLVQPGGSLRLSCAASGFTFSNYGMTWVRQAPGKGLEWVSAITGGGGSTYYSNSVKGRFTISRDNSKNTVYLRMNSVRAEDTAVYYCAKYKWNFVDDWGQGTTVTVSS VL: not shown |
| 87% | 5% | 5.23e-10 M | 153 pM | no binding | no binding | 10 MFI | 16000 MFI | 17 MFI | 39 MFI | 14 MFI | 37 MFI | 3330 MFI | 5500 MFI | H4H18417P2 (antibody, human IgG4, V domains shown, Fully human antibody with human IgG4 Fc (H4H prefix)) VH: QVQLVESGGGVVQPGRSLRLSCAASGFTFSTYGMHWVRQAPGKGLEWVSVISYDESNKYYADSVKGRFTISRDNSKNALYLQMNSLRNEDTAVYYCARDRPFGLVTGWFDPWGQGTLVTVSS VL: not shown |
